ChEMBL document CHEMBL4321859, “Unforeseen Possibilities To Investigate the Regulation of Polyamine Metabolism Revealed by Novel C-Methylated Spermine Derivatives” (J Med Chem, 2019)

Substrate: CC(CN)CNCCCCNCC(C)CN
Assay: Substrate activity at recombinant human SMOX assessed as Km at 2000 to 6000 uM
Format: ADME

B1: Spermine oxidase (Homo sapiens) (protein)
chain: MQSCESSGDSADDPLSRGLRRRGQPRVVVIGAGLAGLAAAKALLEQGFTDVTVLEASSHIGGRVQSVKLGHATFELGATWIHGSHGNPIYHLAEANGLLEETTDGERSVGRISLYSKNGVACYLTNHGRRIPKDVVEEFSDLYNEVYNLTQEFFRHDKPVNAESQNSVGVFTREEVRNRIRNDPDDPEATKRLKLAMIQQYLKVESCESSSHSMDEVSLSAFGEWTEIPGAHHIIPSGFMRVVELLAEGIPAHVIQLGKPVRCIHWDQASARPRGPEIEPRGEGDHNHDTGEGGQGGEEPRGGRWDEDEQWSVVVECEDCELIPADHVIVTVSLGVLKRQYTSFFRPGLPTEKVAAIHRLGIGTTDKIFLEFEEPFWGPECNSLQFVWEDEAESHTLTYPPELWYRKICGFDVLYPPERYGHVLSGWICGEEALVMEKCDDEAVAEICTEMLRQFTGNPNIPKPRRILRSAWGSNPYFRGSYSYTQVGSSGADVEKLAKPLPYTESSKTAPMQVLFSGEATHRKYYSTTHGALLSGQREAARLIEMYRDLFQQGT
Km: 121 µM
Vmax: 0.124 µmol/min/mg
